Source: patent US20220396612A1 (UNIVERSIT DE TOURS, published 2022)
Residue numbers refer to the chain shown, from its start.

How the values were obtained:
[1] = target: T1, virus-like particles (VLPs) of BK polyomavirus VP-1 protein, serotype Ia (BK virus (BKPyV), serotype Ia, UniProt P03088 1-361); assay: ELISA on coated VLP; supernatant 1/10 240
T1 construct: self-assembled native VLPs coated on ELISA plates; also called VLP Ia; BKV VP-1, serotype Ia
T1 chain: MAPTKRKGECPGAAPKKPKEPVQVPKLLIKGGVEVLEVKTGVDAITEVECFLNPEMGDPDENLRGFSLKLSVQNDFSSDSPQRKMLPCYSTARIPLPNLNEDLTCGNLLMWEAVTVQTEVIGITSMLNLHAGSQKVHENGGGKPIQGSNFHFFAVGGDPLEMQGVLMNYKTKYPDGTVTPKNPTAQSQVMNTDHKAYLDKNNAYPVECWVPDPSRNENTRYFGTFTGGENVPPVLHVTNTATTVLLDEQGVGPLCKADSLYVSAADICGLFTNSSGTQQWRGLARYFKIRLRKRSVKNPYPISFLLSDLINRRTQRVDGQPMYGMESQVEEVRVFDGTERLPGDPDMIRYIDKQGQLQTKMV
Protocol: (§1) To do this, the VLPs produced were deposited at a concentration of 1 μg/mL in PBS and incubated overnight at +4° C. The wells were then blocked for 1 h at +37° C. with a PBS/FCS (phosphate-buffered saline/fetal calf serum) mixture. After dilution in a dilution buffer containing FCS, PBS and Tween® 20, the various hybridoma culture supernatants were added for 1 h at +37° C. The wells were washed four times in a row with Wash Buffer and a secondary anti-mouse antibody coupled to peroxidase was added to the 1:2000 dilution for 1 h at +37° C. The wells were washed four more times and the substrate (OPD (ortho phenylene diamine)+H₂O₂) was added for 30 min at room temperature. A stop solution (H₂SO₄ 4N) was then added and each well was read by measuring the absorbance at 492 nm with a spectrophotometer. The value obtained for the average of the control wells (PBS in the first step) is subtracted from the optical density values obtained for each well.

[2] = target: T2, virus-like particles (VLPs) of JC polyomavirus VP-1 protein (JC virus (JCPyV), UniProt P03089 1-354, Assembled into virus-like particles (many VP-1 copies); the letters give one VP-1 chain.); assay: ELISA on coated JCPyV VLPs
T2 construct: Expressed in insect cells by baculovirus; VLPs coated on ELISA plates; also called JCPyV VLPs; JCPyV

[3] = target: T3, virus-like particles (VLPs) of BK polyomavirus VP-1 protein, serotype II (BK virus (BKPyV), serotype II, UniProt P14996 1-362); assay: ELISA on coated VLP;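 also: hybridoma culture supernatants (mouse antibodies) tested on wells coated with 1 µg/mL VLPs, peroxidase anti-mouse detection with OPD, background from PBS-coated control wells subtracted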
T3 construct: native VLPs; also called VLP II
T3 chain: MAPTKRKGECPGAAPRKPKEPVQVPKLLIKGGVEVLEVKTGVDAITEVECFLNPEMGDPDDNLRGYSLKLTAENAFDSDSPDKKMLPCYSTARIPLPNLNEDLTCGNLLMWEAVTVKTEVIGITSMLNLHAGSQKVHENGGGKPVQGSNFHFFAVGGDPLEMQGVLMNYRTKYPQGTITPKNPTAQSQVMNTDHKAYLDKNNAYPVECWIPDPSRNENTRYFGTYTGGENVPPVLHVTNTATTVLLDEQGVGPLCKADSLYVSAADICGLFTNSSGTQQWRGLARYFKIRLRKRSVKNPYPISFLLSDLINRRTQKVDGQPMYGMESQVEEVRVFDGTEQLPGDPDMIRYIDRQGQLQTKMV
Protocol: as §1

[4] = target: T4, virus-like particles (VLPs) of BK polyomavirus VP-1 protein, serotype Ib2 (BK virus (BKPyV), serotype Ib2, PA …, UniProt P03088 1-362); assay: ELISA on coated VLP;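 also: hybridoma culture supernatants (mouse antibodies) tested on wells coated with 1 µg/mL VLPs, peroxidase anti-mouse detection with OPD, background from PBS-coated control wells subtracted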
T4 construct: native VLPs; also the immunogen; also called VLP Ib2; BK Ib2
T4 chain: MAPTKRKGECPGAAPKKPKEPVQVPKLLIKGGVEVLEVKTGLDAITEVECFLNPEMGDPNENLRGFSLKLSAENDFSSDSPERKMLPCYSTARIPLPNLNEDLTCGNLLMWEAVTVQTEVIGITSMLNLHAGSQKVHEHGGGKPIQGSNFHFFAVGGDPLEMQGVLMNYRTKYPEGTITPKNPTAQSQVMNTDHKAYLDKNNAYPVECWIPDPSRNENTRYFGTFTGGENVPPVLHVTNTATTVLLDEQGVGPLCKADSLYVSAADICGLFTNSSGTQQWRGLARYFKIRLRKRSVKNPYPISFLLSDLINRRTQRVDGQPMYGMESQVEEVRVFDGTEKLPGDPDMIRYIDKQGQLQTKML
Protocol: as §1

[5] = target: T5, virus-like particles (VLPs) of BK polyomavirus VP-1 protein, serotype IV (BK virus (BKPyV), serotype IV, UniProt P14996 1-362); assay: ELISA on coated VLP;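 also: hybridoma culture supernatants (mouse antibodies) tested on wells coated with 1 µg/mL VLPs, peroxidase anti-mouse detection with OPD, background from PBS-coated control wells subtracted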
T5 construct: native VLPs; also called VLP IV
T5 chain: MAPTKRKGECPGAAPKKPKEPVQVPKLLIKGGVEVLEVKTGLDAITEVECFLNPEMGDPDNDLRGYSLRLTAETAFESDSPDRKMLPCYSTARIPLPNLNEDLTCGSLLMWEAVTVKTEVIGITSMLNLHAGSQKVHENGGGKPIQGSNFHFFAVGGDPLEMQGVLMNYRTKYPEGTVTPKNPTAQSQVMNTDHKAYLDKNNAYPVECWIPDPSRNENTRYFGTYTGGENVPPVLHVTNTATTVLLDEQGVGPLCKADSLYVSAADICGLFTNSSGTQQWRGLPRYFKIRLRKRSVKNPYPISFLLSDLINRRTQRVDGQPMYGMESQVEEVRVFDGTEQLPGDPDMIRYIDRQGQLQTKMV
Protocol: as §1

[6] = target: T1, virus-like particles (VLPs) of BK …; assay: ELISA on coated VLP;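 also: hybridoma culture supernatants (mouse antibodies) tested on wells coated with 1 µg/mL VLPs, peroxidase anti-mouse detection with OPD, background from PBS-coated control wells subtracted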
Protocol: as §1

[7] = target: T6, virus-like particles (VLPs) of BK polyomavirus VP-1 protein, serotype III (BK virus (BKPyV), serotype III, UniProt P14996 1-362); assay: ELISA on coated VLP
T6 construct: native VLPs; also called VLP III
T6 chain: T3 chain with R16K, N62H, L68Q, K69H, R215K
Protocol: as §1

[8] = target: T4, virus-like particles (VLPs) of BK …; assay: ELISA on coated VLP (detection limit OD>0.5)
Protocol: as §1

[9] = target: T2, virus-like particles (VLPs) of JC …; assay: ELISA on coated VLP (detection limit OD>0.5)
Protocol: as §1

T2 sequence (P03089 whole entry): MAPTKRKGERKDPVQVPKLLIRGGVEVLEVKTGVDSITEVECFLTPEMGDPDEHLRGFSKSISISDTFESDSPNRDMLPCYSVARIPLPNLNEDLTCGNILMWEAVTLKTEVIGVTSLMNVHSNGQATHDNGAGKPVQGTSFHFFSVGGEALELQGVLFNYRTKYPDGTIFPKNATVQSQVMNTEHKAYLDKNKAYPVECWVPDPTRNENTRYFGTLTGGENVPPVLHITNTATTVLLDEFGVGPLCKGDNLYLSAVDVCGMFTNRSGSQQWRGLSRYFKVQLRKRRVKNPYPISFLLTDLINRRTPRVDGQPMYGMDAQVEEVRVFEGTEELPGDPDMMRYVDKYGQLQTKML

B1: monoclonal antibody ‘F6’ secreted by clone BK6A2F6 (antibody)
heavy: EVQLQQSGPELVKPGASVKISCKASGYSFTGYFMNWVKQSHGKSLEWIGRINPYNGDTFYNQKFKGKATLTVDKSSSTAHMELLSLTSEDSAVYYCGSYYYGDYFDYWGQGTTLTVSSAKTTPPSVYPLAPGSAAQTNSMVTLGCLVKGYFPEPVTVTWNSGSLSSGVHTFPAVLQSDLYTLSSSVTVPSSTWPSETVTCNVAHPASSTKVDKKIVPRDCGCKPCICTVPEVSSVFIFPPKPKDVLTITLTPKVTCVVVDISKDDPEVQFSWFVDDVEVHTAQTQPREEQFNSTFRSVSELPIMHQDWLNGKEFKCRVNSAAFPAPIEKTISKTKGRPKAPQVYTIPPPKEQMAKDKVSLTCMITDFFPEDITVEWQWNGQPAENYKNTQPIMDTDGSYFVYSKLNVQKSNWEAGNTFTCSVLHEGLHNHHTEKSLSHSPGK
light: […]
OD 492 nm [1]: 0.19 OD
binding result [2]: no binding (tested: detection limit: OD>0.5)
OD 492 nm [3]: 1.65 OD
OD 492 nm [4]: 2.89 OD
OD 492 nm [5]: 3.16 OD
OD 492 nm [6]: 3.23 OD
OD 492 nm [7]: 0.42 OD
OD 492 nm [8]: 3 OD
OD 492 nm [9]: 0.028 OD

B2: monoclonal antibody ‘H6’ secreted by clone BK6A2H6 (antibody, V domains shown)
VH: EVQLQQSGPELVKPGASVKISCKASGYSFTGYFMNWVKQSHGKSLEWIGRINPYNGDTFYNQKFKGKATLTVDKSSSTAHMELLSLTSEDSAVYYCGSYYYGDYFDYWGQGTTLTVSS
VL: SIVMTQIPKFLLVSEGDRVTITCKASQSVSNDVAWYQQKSGQSPKLLIYYASNRYTGVPDRFTGSGYGTDFTFTISTVQAEDLAVYFCQQDYSSPLTFGAGTKLELKR
OD 492 nm [1]: 0.22 OD
binding result [2]: no binding (tested: detection limit: OD>0.5)
OD 492 nm [3]: 0.86 OD
OD 492 nm [4]: 3.19 OD
OD 492 nm [5]: 3.21 OD
OD 492 nm [6]: 3.06 OD
OD 492 nm [7]: 0.481 OD
OD 492 nm [8]: 2.97 OD
OD 492 nm [9]: 0.013 OD

B3: monoclonal antibody ‘18A2’ derived from hybridoma 18A2 (antibody, V domains shown)
VH: DVQLQESGPGLVKPSQSLSLTCSVTGYSITSGYYWNWIRQFPGNKLEWMGYISYDGSNNYNPSLKNRISITRDTSKNQFFLKLNSVTTEDTATYYCARWEGTTDYWGQGTTLTVSS
VL: not shown
notes: Mouse hybridoma antibody
binding result [2]: no binding (tested: detection limit: OD>0.5)
OD 492 nm [3]: 1.05 OD
OD 492 nm [4]: 3.02 OD
OD 492 nm [5]: 1.22 OD
OD 492 nm [6]: 2.22 OD
OD 492 nm [7]: 0.763 OD
OD 492 nm [8]: 0.565 OD
OD 492 nm [9]: 0.116 OD
